The data set concerns K562 CRISPRi cells. The experiment in a line: Constant region variant library pooled growth screen, K562. It is filed as cell-based, human. The conditions noted are these: sgRNA constant region variants; activity relative to the original, un-modified constant region cr995. The essentials:
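Cells were selected with puromycin for 2 days and then kept in RPMI-1640 spinner cultures, with duplicates handled separately. Targeting sequences comprised 3 sgRNAs per essential gene for 10 genes plus six non-targeting controls. Activities were normalized against pairing with the unmodified scaffold.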

B1: cr708 (nucleic acid)
guide: GTTTAAGAGCTAAGCTGGAAACAGCATAGCAAGTTTAAATAATGCTAGTCAGTTATCAACTTGAAAAAGTGGCACCGAGTCGGTGCT
modifications: listed as DNA, chemistry not fully specified
B1 registered a Mean relative activity of 0.0394.

B2: cr526 (nucleic acid)
guide: GTTTAAGAGCTAAGCTGGAAACAGCATAGCAAGTTTAAATAATGCTAGTCAGTTATCAACTTGAAAAAGTGGCGCCGAGTCGGCGCT
modifications: listed as DNA, chemistry not fully specified
The molecule B2 showed a Mean relative activity of 0.03359.

B3: cr616 (nucleic acid)
guide: GTTTAAGAGCTAAGCTGGAAACAGCATAGCAAGTTTAAATAAGGCTAGTCCGTTATCAAGATGAAAATCTGGCACCGAGTCGGTGCT
modifications: listed as DNA, chemistry not fully specified
In turn, B3 showed a Mean relative activity of 1.035.

B4: cr107 (nucleic acid)
guide: GTTTAAGAGCTAAGCTGGAAACAGCATAGCAAGTTTAAATAATGCTAGTCAGTTATCAACTTGAAAAAGTGGCAACGAGTCGTTGCT
modifications: listed as DNA, chemistry not fully specified
In turn, B4 came in with a Mean relative activity of 0.03837.

B5: cr571 (nucleic acid)
guide: GTTTAAGAGCTAAGCTGGAAACAGCATAGCAAGGTTAAATAAGGCTAGTCCGTTATCAACTCGAAAGAGTGGCACCGAGTCGGTGCT
modifications: listed as DNA, chemistry not fully specified
In turn, B5 gave a Mean relative activity of 0.03194.

B6: cr880 (nucleic acid)
guide: GTTTAAGAGCTAAGCTGGAAACAGCATAGCAAGGTTAAATAAGGCTAGTCCGTTATCAACTTGAAAAAGTGGCATCGAGTCGATGCT
modifications: listed as DNA, chemistry not fully specified
On to B6, for which the Mean relative activity turned out to be 0.03183.

B7: cr314 (nucleic acid)
guide: GTTTAAGAGCTAAGCTGGAAACAGCATAGCAAGGTTAAATAAGGCTAGTCCGTTATCAACTTGAAAAAGTGGAACCGAGTCGGTTCT
modifications: listed as DNA, chemistry not fully specified
Consider B7, for which the Mean relative activity is recorded as 0.03303.

B8: cr574 (nucleic acid)
guide: GTTTAAGAGCTAAGCTGGAAACAGCATAGCAAGTTTCAATAAGGCTAGTCCGTTATCAACTTGAAAAAGTGGCACCGAGTCGGTGCT
modifications: listed as DNA, chemistry not fully specified
Consider B8, for which the Mean relative activity turned out to be 0.03217.

B9: cr241 (nucleic acid)
guide: GTTTAAGAGCTAAGCTGGAAACAGCATAGCAACTTTAAATAAGGCTAGTCCGTTATCAACATGAAAATGTGGCACCGAGTCGGTGCT
modifications: listed as DNA, chemistry not fully specified
Consider B9, for which the Mean relative activity came out at 0.03304.

B10: cr738 (nucleic acid)
guide: GTTTAAGAGCTAAGCTGGAAACAGCATAGCATGTTTAAATTAGGCTAGTCCGTTATCAACTTGAAAAAGTGGCACCGAGTCGGTGCT
modifications: listed as DNA, chemistry not fully specified
Take B10: the Mean relative activity was 0.03306.

B11: cr222 (nucleic acid)
guide: GTTTAAGAGCTAAGCTGGAAACAGCATAGCAAGGTTAAATAAGGCTAGTCCGTTATCAGCTTGAAAAAGCGGCACCGAGTCGGTGCT
modifications: listed as DNA, chemistry not fully specified
As to B11, the Mean relative activity amounted to 0.03915.

B12: cr312 (nucleic acid)
guide: GTTTAAGAGCTAAGCTGGAAACAGCATAGCAAGGTTAAATAAGGCTAGTCCGTTATCAACGTGAAAACGTGGCACCGAGTCGGTGCT
modifications: listed as DNA, chemistry not fully specified
B12 yielded a Mean relative activity of 0.03032.

B13: cr593 (nucleic acid)
guide: GTTTAAGAGCTAAGCTGGAAACAGCATAGCAAGTTTAAATAAGGCTAGTCCGTTATCACCTTGAAAAAGGGGCACCGAGTCGGTGCT
modifications: listed as DNA, chemistry not fully specified
As to B13, the Mean relative activity is 1.035.

B14: cr208 (nucleic acid)
guide: GTTTAAGAGCTAAGCTGGAAACAGCATAGCAAGTTTAAATAAGGCTAGTCCTTCATCAACTTGAAGAAGTGGCACCGAGTCGGTGCT
modifications: listed as DNA, chemistry not fully specified
Turning to B14, the Mean relative activity turned out to be 0.03711.

B15: cr988 (nucleic acid)
guide: GTTTAAGAGCTAAGCTGGAAACAGCATAGCAACTTTAAATAAGGCTAGTCCGTTATCAAGTTGAAAAACTGGCACCGAGTCGGTGCT
modifications: listed as DNA, chemistry not fully specified
Molecule B15 registered a Mean relative activity of 0.0305.

B16: cr313 (nucleic acid)
guide: GTTTAAGAGCTAAGCTGGAAACAGCATAGCAAGTTTAAATAAGGCTAGTCCGTTATCAACTTGAAAAAGTGGGTGGGAGTCGCTCCT
modifications: listed as DNA, chemistry not fully specified
In turn, B16 had a Mean relative activity of 0.03202.

B17: cr078 (nucleic acid)
guide: GTTTTGGAGCTAAGCTGGAAACAGCATAGCAAGTTTAAATAAGGCTAGTCCGTTATCAACTTGAAAAAGTGGCACCGAGTCGGTGCT
modifications: listed as DNA, chemistry not fully specified
For B17, the Mean relative activity was found to be 0.03507.

B18: cr007 (nucleic acid)
guide: GTATAAGAGCTAAGCTGGAAACAGCATAGCAAGTTTAAATAAGGCTAGTCCGTTATCAACTTGAAAAAGTGGCACCGAGTCGGTGCT
modifications: listed as DNA, chemistry not fully specified
The molecule B18 came in with a Mean relative activity of 0.03285.

B19: cr638 (nucleic acid)
guide: GTTTAAGAGCTAAGCTGGAAACAGCATAGCAAGCTTAAATAAGGGTACTCCGTTATCAACTTGAAAAAGTGGCACCGAGTCGGTGCT
modifications: listed as DNA, chemistry not fully specified
B19 had a Mean relative activity of 0.03012.

B20: cr498 (nucleic acid)
guide: GTTTAAGAGCTAAGCTGGAAACAGCATAGCAAGTTTAATTAAGGCTAGTCCGTTATCAACTTGAAAAAGTGGCACCGAGTCGGTGCT
modifications: listed as DNA, chemistry not fully specified
As for B20, the Mean relative activity worked out at 0.03563.

B21: cr335 (nucleic acid)
guide: GTTTAAGAGCTAAGCTGGAAACAGCATAGCAAGTTTAAATAAGGCTAGTCCGTTATCAACTTGAAAAAGTGACGCCGAGTCGGCGTT
modifications: listed as DNA, chemistry not fully specified
B21 showed a Mean relative activity of 1.036.

B22: cr681 (nucleic acid)
guide: GTTTAAGAGCTAAGCTGGAAACAGCATAGCAAGTTTAAATAAGGCTACTCCGTTATTAACTTGAAAAAGTGGCACCGAGTCGGTGCT
modifications: listed as DNA, chemistry not fully specified
B22 yielded a Mean relative activity of 0.03559.

B23: cr151 (nucleic acid)
guide: GTTTAAGAGCTAAGCTGGAAACAGCATAGCAACTTTAAATAAGGCTAGTCCGGTATCAACTTGAAAAAGTGGCACCGAGTCGGTGCT
modifications: listed as DNA, chemistry not fully specified
For the molecule B23, the Mean relative activity was 0.03186.

B24: cr357 (nucleic acid)
guide: GTTTAAGAGCTAAGCTGGAAACAGCATAGCAAGGTTAAATAAGGCTAGTCCGTTATCAACTTGAAAAAGTGGCTCCGAGTCGGAGCT
modifications: listed as DNA, chemistry not fully specified
The molecule B24 had a Mean relative activity of 0.03253.

B25: cr716 (nucleic acid)
guide: GTTTAAGAGCTAAGCTGGAAACAGCATAGCCATTTTAAATAAGGCTAGTCCGTTATCAACTTGAAAAAGTGGCACCGAGTCGGTGCT
modifications: listed as DNA, chemistry not fully specified
Molecule B25 had a Mean relative activity of 0.03033.

B26: cr743 (nucleic acid)
guide: GTTTAAGAGCTAAGCTGGAAACAGCATAGCAACTTTAAATAAGGCTAGTCCGTTATCAACTTGAAAAAGTGGCGCCGAGTCGGCGCT
modifications: listed as DNA, chemistry not fully specified
The molecule B26 registered a Mean relative activity of 0.03495.

B27: cr202 (nucleic acid)
guide: GTTTAAGAGCTAAGCTGGAAACAGCATAGCAACTTTAAATAAGGCTAGTCCGTTATCAACTTGAAAAAGTGACACCGAGTCGGTGTT
modifications: listed as DNA, chemistry not fully specified
In turn, B27 returned a Mean relative activity of 0.03423.

B28: cr767 (nucleic acid)
guide: GTTTAAGAGCTAAGCTGGAAACAGCATAGCAAGATTAAATAAGGCTAGTCCGTTATCAACTTGAAAAAGTGGCACCGTGTCGGTGCT
modifications: listed as DNA, chemistry not fully specified
B28 gave a Mean relative activity of 0.0381.

B29: cr301 (nucleic acid)
guide: GTTTAAGAGCTAAGCTGGAAACAGCATAGCAACTTTAAATAAGGCTAGTCCGTTATCAACTTGAAAAAGTGGCACCGATTCGGTGCT
modifications: listed as DNA, chemistry not fully specified
The molecule B29 displayed a Mean relative activity of 0.03132.

These data come from US20220259593A1, “CONTROL OF MAMMALIAN GENE DOSAGE USING CRISPR” (The Regents of the University of California, priority 2019, published 2022).
